This is an account of results in PMC12139721.

For the assay, the target named is CUL5-RBX2 (human | mouse) (UniProt Q93034). The assay is described as follows: SEC + native MS.
Sequence of UniProt Q93034 (Q93034 whole entry, chain 1 of 2): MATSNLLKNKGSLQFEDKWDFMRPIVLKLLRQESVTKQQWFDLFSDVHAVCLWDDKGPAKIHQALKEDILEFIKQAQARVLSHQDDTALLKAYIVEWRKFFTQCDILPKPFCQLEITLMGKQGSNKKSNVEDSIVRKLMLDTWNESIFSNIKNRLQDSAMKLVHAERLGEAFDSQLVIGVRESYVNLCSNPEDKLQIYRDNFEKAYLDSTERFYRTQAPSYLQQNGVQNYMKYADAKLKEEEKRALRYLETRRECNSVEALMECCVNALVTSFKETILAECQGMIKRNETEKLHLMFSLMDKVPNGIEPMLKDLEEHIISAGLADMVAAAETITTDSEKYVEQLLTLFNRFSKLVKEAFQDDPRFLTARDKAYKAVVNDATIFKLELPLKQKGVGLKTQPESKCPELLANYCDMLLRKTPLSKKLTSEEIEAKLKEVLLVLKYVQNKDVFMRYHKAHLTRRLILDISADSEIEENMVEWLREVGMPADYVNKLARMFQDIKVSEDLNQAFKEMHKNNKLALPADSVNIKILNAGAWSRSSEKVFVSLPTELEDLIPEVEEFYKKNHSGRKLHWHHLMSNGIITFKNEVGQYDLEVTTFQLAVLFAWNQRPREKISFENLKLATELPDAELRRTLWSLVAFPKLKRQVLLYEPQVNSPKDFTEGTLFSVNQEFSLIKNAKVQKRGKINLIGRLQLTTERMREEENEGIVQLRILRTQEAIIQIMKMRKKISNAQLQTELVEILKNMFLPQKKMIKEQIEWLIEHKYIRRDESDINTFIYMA
Sequence of UniProt Q93034 (Q9WTZ1 whole entry, chain 2 of 2, further chain): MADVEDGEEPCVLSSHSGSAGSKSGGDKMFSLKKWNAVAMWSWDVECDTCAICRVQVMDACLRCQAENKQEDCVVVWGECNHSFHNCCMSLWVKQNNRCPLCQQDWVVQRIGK

For “PCMTD1-ELOBC (from UniProt Q96MG8;Q15370;Q15369) (complex)”, the stoichiometry N came out at 1.

For orientation: stoichiometry N means the number of molecules, sites or subunits per partner or assembly.
